In PMC5986797, “Laminin heparin-binding peptides bind to several growth factors and enhance diabetic wound healing” (Nature Communications, 2018):

Legend:
Settings in all cases: both partners purified
[1] = target: T1, recombinant human laminin-521 (human, UniProt O15230 36-3695; P55268 33-1798; P11047 34-1609); test: ELISA; plates coated with 50 nM GF or chemokine in PBS; 10 nM laminin isoform in PBS added; bound laminin detected with anti-LAMC1 or anti-LAMA3 polyclonal antibody; A450 signals greater than 0.1 taken as binding; BSA-coated wells as control
T1 construct: laminin subunit alpha-5, human; chain told by the isoform's name; laminin subunit beta-2, human; laminin subunit gamma-1, human; also called laminin isoform-521; source: bought: BioLamina (recombinant human, >95% purity); copies: + +

[2] = target: T2, recombinant human laminin-211 (human, UniProt P24043 23-3122; P07942 22-1786; P11047 34-1609); test: as above
T2 construct: laminin subunit alpha-2, human; chain told by the isoform's name; laminin subunit beta-1, human; laminin subunit gamma-1, human; source: bought: BioLamina (recombinant human, >95% purity); copies: + +

[3] = target: T3, recombinant human laminin-511 (human, UniProt O15230 36-3695; P07942 22-1786; P11047 34-1609); test: as above
T3 construct: laminin subunit alpha-5, human; chain told by the isoform's name; laminin subunit beta-1, human; laminin subunit gamma-1, human; source: bought: BioLamina (recombinant human, >95% purity); copies: + +

[4] = target: T4, recombinant human laminin-111 (human, UniProt P25391 18-3075; P07942 22-1786; P11047 34-1609); test: as above
T4 construct: laminin subunit alpha-1, human; chain told by the isoform's name; laminin subunit beta-1, human; laminin subunit gamma-1, human; source: bought: BioLamina (recombinant human, >95% purity); copies: + +

[5] = target: T5, FGF-2 (human, UniProt P09038 143-288); test: ELISA; plates coated with laminin peptide (10 µg/mL by the legend, 1 μg/mL by the methods); 1 μg/mL GF added; bound GF detected with an antibody for each GF; BSA-coated wells as control
T5 construct: fibroblast growth factor 2, human, bought in its mature form; source: bought: PeproTech; produced in Escherichia coli

[6] = target: T6, placental growth factor (PlGF)-2 (human, UniProt P49763-3 19-170); test: as above
T6 construct: placenta growth factor, form PlGF-2, human, bought in its mature form; source: bought: PeproTech; produced in Escherichia coli
T6 sequence (looked up): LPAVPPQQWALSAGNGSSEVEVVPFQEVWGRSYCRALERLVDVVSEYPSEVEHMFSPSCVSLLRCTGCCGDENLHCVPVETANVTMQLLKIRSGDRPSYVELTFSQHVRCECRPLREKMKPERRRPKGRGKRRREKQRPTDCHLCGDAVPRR

[7] = target: T7, platelet-derived growth factor PDGF-BB (human, UniProt P01127 82-190); test: as above
T7 construct: platelet-derived growth factor subunit B, human, bought in its mature form; a homodimer by its name; source: bought: PeproTech; produced in Escherichia coli

Measured: binding result

T5 sequence (P09038 143-288): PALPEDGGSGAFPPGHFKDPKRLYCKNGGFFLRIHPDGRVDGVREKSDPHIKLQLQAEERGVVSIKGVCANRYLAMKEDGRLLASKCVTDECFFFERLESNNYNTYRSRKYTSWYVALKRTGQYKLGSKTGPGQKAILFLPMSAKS
T7 sequence (P01127 82-190): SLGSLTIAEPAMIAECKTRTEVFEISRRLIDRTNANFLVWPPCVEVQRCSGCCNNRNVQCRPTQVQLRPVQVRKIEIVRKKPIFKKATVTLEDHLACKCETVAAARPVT

B1: NT-3 (ligand, UniProt P20783 139-257, looked up)
chain: YAEHKSHRGEYSVCDSESLWVTDKSSAIDIRGHQVTVLGEIKTGNSPVKQYFYETRCKEARPVKNGCRGIDDKHWNSQCKTSQTYVRALTSENNKLVGWRWIRIDTSCVCALSRKIGRT
notes: neurotrophin-3, bought in its mature form; also called neurotrophin NT-3; source: bought: PeproTech; produced in Escherichia coli
binds: [1] | [2] | [3] | [4]

B2: laminin peptide LAMA3_(2932–2951) (peptide, UniProt Q16787 2932-2951, looked up)
peptide: PPFLMLLKGSTRFNKTKTFR
notes: laminin subunit alpha-3, human, residues 2932-2951, from the LG3-LG4 linker; source: synthetic peptide (Genscript)
binds: [5]

B3: FGF-10 (ligand, UniProt O15520 38-208, looked up)
chain: QALGQDMVSPEATNSSSSSFSSPSSAGRHVRSYNHLQGDVRWRKLFSFTKYFLKIEKNGKVSGTKKENCPYSILEITSVEIGVVAVKAINSNYYLAMNKKGKLYGSKEFNNDCKLKERIEENGYNTYASFNWQHNGRQMYVALNGKGAPRRGQKTRRKNTSAHFLPMVVHS
notes: fibroblast growth factor 10, bought in its mature form; source: bought: PeproTech; produced in Escherichia coli
binds: [1] | [2] | [3] | [4]

B4: FGF-7 (ligand, UniProt P21781 32-194, looked up)
chain: CNDMTPEQMATNVNCSSPERHTRSYDYMEGGDIRVRRLFCRTQWYLRIDKRGKVKGTQEMKNNYNIMEIRTVAVGIVAIKGVESEFYLAMNKEGKLYAKKECNEDCNFKELILENHYNTYASAKWTHNGGEMFVALNQKGIPVRGKKTKKEQKTAHFLPMAIT
notes: fibroblast growth factor 7, bought in its mature form; source: bought: PeproTech; produced in Escherichia coli
binds: [1] | [2] | [3] | [4]

B5: FGF-18 (ligand, UniProt O76093 28-207, looked up)
chain: EENVDFRIHVENQTRARDDVSRKQLRLYQLYSRTSGKHIQVLGRRISARGEDGDKYAQLLVETDTFGSQVRIKGKETEFYLCMNRKGKLVGKPDGTSKECVFIEKVLENNYTALMSAKYSGWYVGFTKKGRPRKGPKTRENQQDVHFMKRYPKGQPELQKPFKYTTVTKRSRRIRPTHPA
notes: fibroblast growth factor 18, bought in its mature form; source: bought: PeproTech; produced in Escherichia coli
binds: [1] | [2] | [3] | [4]

B6: BMP-2 (ligand, UniProt P12643 283-396, looked up)
chain: QAKHKQRKRLKSSCKRHPLYVDFSDVGWNDWIVAPPGYHAFYCHGECPFPLADHLNSTNHAIVQTLVNSVNSKIPKACCVPTELSAISMLYLDENEKVVLKNYQDMVVEGCGCR
notes: bone morphogenetic protein 2, bought in its mature form; source: bought: PeproTech; produced in Escherichia coli
binds: [1] | [2] | [3] | [4]

B7: BMP-3 (ligand, UniProt P12645 363-472, looked up)
chain: QWIEPRNCARRYLKVDFADIGWSEWIISPKSFDAYYCSGACQFPMPKSLKPSNHATIQSIVRAVGVVPGIPEPCCVPEKMSSLSILFFDENKNVVLKVYPNMTVESCACR
notes: bone morphogenetic protein 3, bought in its mature form; source: bought: PeproTech; produced in Escherichia coli
binds: [1] | [2] | [3] | [4]

B8: laminin peptide LAMA5_(3539–3550) (peptide, UniProt O15230 3539-3550, looked up)
peptide: TLPDVGLELEVR
notes: laminin subunit alpha-5, human, residues 3539-3550; source: synthetic peptide (Genscript)
binds: [5] | [6] | [7]
